Data taken from patent US11999794B2, “Human mesothelin chimeric antigen receptors and uses thereof” (Novartis AG, priority 2013, dated 2024).
Entries after “also recorded” stand apart in the source; their conditions may differ.

Assays:
Ovcar8 = Ovcar8 xenograft model (Example 8); assay type: in vivo, NSG mice; settings: OVCAR8-mcherry; 10×10^6 T cells, about 4×10^6 CART cells
Protocol: Anti-tumor activity of CART-MSLN was assessed in vivo in an Ovcar8 xenograft model. 10×10^6 Ovcar8 cells were implanted subcutaneously on day 0 in NSG mice. At day 14, 2×10^6 CART cells (CARTs expressing M5, M11, M17, M21, SS1, and CD19, or untransduced cells; 10×10^6 total T cells) in a 100 μl dose was administered intravenously. Mice and tumors were monitored for about 40 days after tumor cell implantation.
A second in vivo xenograft experiment was performed to assess the anti-tumor activity of a second set of CART-MSLN cells. 10×10^6 OVCAR8-mcherry cells were injected into NSG mice. Once tumors were 150-250 mm^2, mice were randomized into treatment groups. CARTs expressing M12, M14, M16, M23, ss1, CD19, or untreated cells were injected at a dose of 10×10^6 T cells in 100 μl. About 40% of T cells were expressing CAR, and therefore at the administered dosage, about 4×10^6 CART cells were delivered to each animal.

[1] = target: T1, biotinylated mesothelin ECD (Homo sapiens, UniProt Q13421); assay: SPR relative epitope binning in comparison to SS1; assay type: binding; settings: 50 nM SS1 captured first, then scFv at 100 nM
T1 construct: made in house; host or cells: HEK293F (transient)
T1 sequence (Q13421 with tags, fused parts or gaps): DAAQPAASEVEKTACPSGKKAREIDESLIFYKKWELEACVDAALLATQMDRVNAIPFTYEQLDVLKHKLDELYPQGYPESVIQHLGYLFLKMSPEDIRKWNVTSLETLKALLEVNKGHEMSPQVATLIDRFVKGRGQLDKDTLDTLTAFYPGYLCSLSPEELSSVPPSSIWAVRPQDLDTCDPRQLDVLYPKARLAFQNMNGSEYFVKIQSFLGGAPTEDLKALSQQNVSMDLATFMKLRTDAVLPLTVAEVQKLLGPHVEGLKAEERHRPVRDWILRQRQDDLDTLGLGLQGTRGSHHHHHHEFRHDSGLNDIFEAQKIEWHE
Protocol: In embodiments, the competition assay is an SPR-based assay. Briefly, the antigen, e.g., human mesothelin, is immobilized on a surface. Through a microflow system, a reference antibody is injected over the antigen layer. Upon binding of the reference antibody to the antigen, an increase in signal, typically expressed in response units (RU) is detected, e.g., reference signal. After a desired time, a test antibody is injected over the antigen layer. If the test antibody binds to a different region or epitope of the antigen, then an additional increase in signal is detected, e.g., a 5% or more, 10% or more, 15% or more, 20% or more, 25% or more, 30% or more, 35%, or more, 40% or more, 45% or more, 50% or more, 55% of more, 60% or more, 65% or more, 70% or more, 75% or more, 80% or more, 85% or more, 90% or more, or 95% or more increase in signal, e.g., RU, as compared to the highest signal detected upon binding of the reference antibody, e.g., the reference signal. If the test antibody binds to the same region or epitope of the antigen, then little or no increase in signal, e.g., RU, will be detected, e.g., less than 20%, less than 15%, less than 10%, less than 5%, less than 4%, less than 3%, less than 2%, or less than 1% increase in signal, e.g., RU, as compared to the highest signal detected upon binding of the reference antibody, e.g., the reference signal. When using this SPR-based competition assay, an antibody is said to compete with the reference antibody when less than 20%, less than 15%, less than 10%, less than 5%, less than 4%, less than 3%, less than 2%, or less than 1% increase in signal, e.g., RU, is detected when compared to the reference signal detected upon binding of the reference antibody to the antigen. An antibody is said to not compete, or compete poorly, with a reference antibody when a 5% or more, 10% or more, 15% or more, 20% or more, 25% or more, 30% or more, 35%, or more, 40% or more, 45% or more, 50% or more, 55% of more, 60% or more, 65% or more, 70% or more, 75% or more, 80% or more, 85% or more, 90% or more, or 95% or more increase in signal, e.g., RU, is detected when compared to the reference signal detected upon binding of the reference antibody to the antigen.
To determine the relative binding epitope of each of the scFvs in comparison to SS1, 50 nM SS1 was captured by biotinylated mesothelin ECD immobilized on a streptavidin sensor chip at a contact time of 180 seconds resulting in a relative density of 70 RU. Purified scFv at 100 nM (M5, M11, M12, M14, M16, M17, M21, or M23) was then immediately injected over the chip to minimize dissociation of the SS1/mesothelin complex. Binding of the secondary scFv was monitored for 270 seconds.

[2] = Size exclusion chromatography (oligomerization state of expressed scFvs); assay type: physicochemical; settings: purified scFv
Protocol: Size exclusion chromatography was performed to determine the oligomerization states of the expressed scFvs. 25 μg each was injected onto a TSKGel Super SW3000 4.6 mm×300 mm column (Tosoh Bioscience) heated to 35° C. The scFvs were eluted at 0.3 mL/min in 750 mM arginine, 1 mM EDTA, 20 mM sodium phosphate, 250 mM sodium chloride, pH 7.2; the UV absorbance was monitored at 280 nm.

[3] = target: T1, biotinylated mesothelin ECD; assay: Surface plasmon resonance (Biacore T200) binding affinity of purified scFvs; settings: for Kd: 1:1 Binding or Steady State Affinity fit; for ka / kd: 1:1 Binding fit
Protocol: Binding affinity of purified scFvs was measured on a Biacore T200 system. Briefly, recombinant human biotinylated mesothelin ECD was immobilized on a streptavidin (SA) sensor chip surface at a density of 150 RU. Purified scFv was injected over the chip under constant flow rate at three-fold serial dilutions. Association and dissociation rates of the protein complex were monitored for 270 seconds and 400 seconds, respectively. Double referencing was performed against a blank immobilized flow cell and a buffer blank. Affinity was determined with a Langmuir 1:1 binding model when possible, for those scFVs where accurate fitting was not possible due to fast on and off rates, the steady state model was used.

Ovcar3 = assay: Luciferase-based killing assay; assay type: cell-based, human
Protocol: The ability for the CART-MSLN to target and kill tumor cells was also assessed in vitro. A luciferase-based assay was used, with tumor cell lines expressing luciferase reporters. Target cells (tumor cells) were plated at 20,000 targets/well. CART-MSLN were added at varying effector:target ratios, from 10:1, 5:1, 2.5:1, and 1:1. The cells were cultured for 20 hours, and the luminescence of each well was detected to determine the percentage of target cells killed. Luciferase-expressing Ovcar3 (ovarian cancer) and U87 mg (glioblastoma) cell lines were used as target cells.

B1: M12: human anti-mesothelin scFv SEQ ID NO: 50; full CAR SEQ ID NO: 74 (protein)
scFv: QVQLVQSGAEVKKPGASVKVSCKASGYTFTGYYMHWVRQAPGQGLEWMGRINPNSGGTNYAQKFQGRVTMTTDTSTSTAYMELRSLRSDDTAVYYCARTTTSYAFDIWGQGTMVTVSSGGGGSGGGGSGGGGSGGGGSDIQLTQSPSTLSASVGDRVTITCRASQSISTWLAWYQQKPGKAPNLLIYKASTLESGVPSRFSGSGSGTEFTLTISSLQPDDFATYYCQQYNTYSPYTFGQGTKLEIK
Ovcar8
  effect on tumor growth, second xenograft experiment: did not have an effect on tumor growth
[1]
  relative epitope binning against SS1 on human mesothelin: Competitive binding; also recorded: competitive binders with SS1
[2]
  % Monomer (SEC): 70%
[3]
  Kd: 307 nM

B2: M14: human anti-mesothelin scFv SEQ ID NO: 52; full CAR SEQ ID NO: 76 (protein)
scFv: QVQLVQSGAEVRAPGASVKISCKASGFTFRGYYIHWVRQAPGQGLEWMGIINPSGGSRAYAQKFQGRVTMTRDTSTSTVYMELSSLRSDDTAMYYCARTASCGGDCYYLDYWGQGTLVTVSSGGGGSGGGGSGGGGSGGGGSDIQMTQSPPTLSASVGDRVTITCRASENVNIWLAWYQQKPGKAPKLLIYKSSSLASGVPSRFSGSGSGAEFTLTISSLQPDDFATYYCQQYQSYPLTFGGGTKVDIK
Ovcar8
  effect on tumor growth, second xenograft experiment: did not have an effect on tumor growth
[1]
  relative epitope binning against SS1 on human mesothelin: Competitive binding; also recorded: competitive binders with SS1
[2]
  % Monomer (SEC): 74.5%
[3]
  ka: 2.75e+06 M⁻¹ s⁻¹
  kd: 0.00251 s⁻¹
  Kd: 0.9 nM

B3: M16: human anti-mesothelin scFv SEQ ID NO: 54; full CAR SEQ ID NO: 78 (protein)
scFv: EVQLVESGGGLVQPGRSLRLSCAASGFTFDDYAMHWVRQAPGKGLEWVSGISWNSGSTGYADSVKGRFTISRDNAKNSLYLQMNSLRAEDTALYYCAKDSSSWYGGGSAFDIWGQGTMVTVSSGGGGSGGGGSGGGGSSSELTQEPAVSVALGQTVRITCQGDSLRSYYASWYQQKPGQAPVLVIFGRSRRPSGIPDRFSGSSSGNTASLIITGAQAEDEADYYCNSRDNTANHYVFGTGTKLTVL
Ovcar8
  effect on tumor growth, second xenograft experiment: did not have an effect on tumor growth
[1]
  relative epitope binning against SS1 on human mesothelin: Competitive binding; also recorded: competitive binders with SS1
[2]
  % Monomer (SEC): 94.5%
[3]
  ka: 174000 M⁻¹ s⁻¹
  kd: 0.00395 s⁻¹
  Kd: 22.7 nM

B4: M17: human anti-mesothelin scFv SEQ ID NO: 55; full CAR SEQ ID NO: 79 (protein)
scFv: EVQLVESGGGLVQPGRSLRLSCAASGFTFDDYAMHWVRQAPGKGLEWVSGISWNSGSTGYADSVKGRFTISRDNAKNSLYLQMNSLRAEDTALYYCAKDSSSWYGGGSAFDIWGQGTMVTVSSGGGGSGGGGSGGGGSSSELTQDPAVSVALGQTVRITCQGDSLRSYYASWYQQKPGQAPVLVIYGKNNRPSGIPDRFSGSSSGNTASLTITGAQAEDEADYYCNSRGSSGNHYVFGTGTKVTVL
Ovcar3; E:T 10:1 to 1:1, 20 hours, FIG. 16A
  killing of target tumor cells: performed similarly well in killing target tumor cells
Ovcar3; FIGS. 17A and 17B
  specific killing within the panel of human meso CARs: highest specific killing of Ovcar3 cells
[1]
  relative epitope binning against SS1 on human mesothelin: Competitive binding; also recorded: competitive binders with SS1
[2]
  % Monomer (SEC): >98%
[3]
  ka: 522000 M⁻¹ s⁻¹
  kd: 0.0145 s⁻¹
  Kd: 27.8 nM

B5: M21: human anti-mesothelin scFv SEQ ID NO: 59; CDRs in Tables 4 and 5 (protein)
scFv: QVQLVQSWAEVKKPGASVKVSCKASGYTFTSYYMHWVRQAPGQGLEWMGIINPSGGSTSYAQKFQGRVTMTRDTSTSTVYMELSNLRSEDTAVYYCARSPRVTTGYFDYWGQGTLVTVSSGGGGSGGGGSGGGGSGGGGSDIQLTQSPSTLSASVGDRVTITCRASQSISSWLAWYQQKPGKAPKLLIYKASSLESGVPSRFSGSGSGTEFTLTISSLQPDDFATYYCQQYSSYPLTFGGGTRLEIK
[1]
  relative epitope binning against SS1 on human mesothelin: Competitive binding; also recorded: competitive binders with SS1
[2]
  % Monomer (SEC): >98%
[3]
  Kd: 110 nM

B6: M23: human anti-mesothelin scFv SEQ ID NO: 61; CDRs in Tables 4 and 5 (protein)
scFv: QVQLQQSGAEVKKPGASVKVSCKASGYTFTNYYMHWVRQAPGQGLEWMGIINPSGGYTTYAQKFQGRLTMTRDTSTSTVYMELSSLRSEDTAVYYCARIRSCGGDCYYFDNWGQGTLVTVSSGGGGSGGGGSGGGGSGGGGSDIQLTQSPSTLSASVGDRVTITCRASENVNIWLAWYQQKPGKAPKLLIYKSSSLASGVPSRFSGSGSGAEFTLTISSLQPDDFATYYCQQYQSYPLTFGGGTKVDIK
Ovcar8
  effect on tumor growth, second xenograft experiment: did not have an effect on tumor growth
[1]
  relative epitope binning against SS1 on human mesothelin: Competitive binding; also recorded: competitive binders with SS1
[2]
  % Monomer (SEC): 91%
[3]
  Kd: 114 nM
